Laboratory results published in US9803013B2, “Biological materials and uses thereof” (BioInvent International AB, priority 2005, dated 2017).

Columns and labels:
Raji B lymphoma cells = experiment: scFv apoptosis assay (cross-linked, 24 h, Annexin V/PI); assay type: cell-based, human
Ramos B lymphoma cells = experiment: as above; assay type: cell-based, human
Procedure: Ramos B lymphoma cells were sequentially incubated with anti-Ramos scFv, anti-His mAb, and anti-mouse polyclonal Ab on ice (with intermittent washing to remove excess unbound antibody), and were incubated in a humidified atmosphere of 5% CO2 at 37° C. for 24 hours. Cells were then harvested and subjected to combined staining with Annexin V-AF488 (AV) and propidium iodide (PI). Cells were scored as viable (AV− PI−, filled circles FIG. 2C), early apoptotic (AV+PI−, open triangles FIG. 2C), or late apoptotic/necrotic (AV+PI+, open diamonds FIG. 2C), based on differential positivity for AV and PI staining (defined by square gates in FIG. 2B). […]
Lipopolysaccharide levels of recombinantly produced scFv fragments were reduced using Detoxigel columns according to manufacturer's instructions (Pierce Biotechnology, Rockford, Ill., USA). Remaining endotoxin levels were quantified by the LAL-amebocyte lysate assay (Cambrex Bioscience, Walkersville, Md., USA). […]
Apoptotic cells were, unless otherwise stated, detected by combined staining with Annexin V Alexa Fluor 488 (AV) and Propidium Iodide (PI) (both from Molecular Probes, Invitrogen) and subsequent flow-cytometric analysis, Cells were defined as viable (AV−/PI−), early apoptotic (AV+/PI−) or late apoptotic/necrotic (AV+/PI+). […]

B1: scFv B11: scFv clone isolated by differential biopanning, later converted to B11 IgG1 (protein)
scFv (part 1 of 2): EVQLLESGGGLVQPGGSLRLSCAASGFTFSNAWMSWVRQAPGKGLEWVAFIWYDGSNKYYADSVKGRFTISRDNSKNTLYLQMNSLRAEDTAVYYCARYSGWYFDYWGQGTLVTVSS
scFv (part 2 of 2): QSVLTQPPSASGTPGQRVTISCTGSSSNIGAGYDVHWYQQLPGTAPKLLIYDNNNRPSGVPDRFSGSKSGTSASLAISGLRSEDEADYYCQSYDSSLSAWLFGGGTKLTVLG
modifications: left off: small tags and cut ends
notes: scFv clone isolated by differential biopanning, later converted to B11 IgG1
Raji B lymphoma cells
  apoptosis induction by scFv: induced significant apoptosis
Ramos B lymphoma cells
  apoptosis induction by scFv: induced significant apoptosis
